Ends that are not written are not given here.
Legend:
Experiment in all cases: EIA; Ab 3.906 ng/mL captured on anti-mouse Fc; bt-peptide 500 ng/mL
[1] = target: T1, C113WT biotin labeled HCV core peptide (hepatitis C virus, also: biotin labeled, position not given here)
T1 peptide: RGSRPSWGPTD

[2] = target: T2, Mut1T110N biotin labeled HCV core peptide (hepatitis C virus, biotin labeled)
T2 peptide: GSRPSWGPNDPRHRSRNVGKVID

[3] = target: Mut6T110S biotin labeled HCV core peptide (hepatitis C virus)
[4] = target: T3, C113T109N biotin labeled HCV core peptide (hepatitis C virus, also: biotin labeled, position not given here)
T3 peptide: RGSRPSWGPND

[5] = target: T4, WT1STHV biotin labeled HCV core peptide (hepatitis C virus, biotin labeled)
T4 peptide: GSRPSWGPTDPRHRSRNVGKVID

B1: HCV Neo4 monoclonal antibody (antibody, V domains shown)
VH: QIQLKESGPAVIKPSQSLSLTCIVSGFSITSSVYCWQWIRQPPGKGLEWMGRICYDGSVDYSPSITSRGTISRDTSLNKVFFQLSSVTNEDTAMYYCSRENHIDYYDTTYPSFDVWGAGTTVTVSS
VL: DIVLTQSPASLIVSLGQRATISCRASKSVNEYGYTYMHWYQQKPGLPPKLLIYLASNLDSGVPARFSGSGSGTDFTLNIHPVEEEDAATYYCQHSRELPYTFGGGTKLEIKR
signal at 492 nm [1]: 0.0694 OD 492 nm | signal at 492 nm [2]: 0.0719 OD 492 nm | signal at 492 nm [3]: 0.0847 OD 492 nm | signal at 492 nm [4]: 0.0717 OD 492 nm | signal at 492 nm [5]: 0.669 OD 492 nm
